The source of these data is patent US20240132625A1 (KOREA ADVANCED INSTITUTE OF SCIENCE AND TECHNOLOGY, published 2024).

For series [1], the target named is Receptor-binding domain of the SARS-CoV-2 spike protein (biotinylated, Acrobio system) (SARS-CoV-2, UniProt P0DTC2 319-541). The series can be described thus: BLI. (In general: BLI is a label-free optical method that tracks binding on a fibre tip over time.)
Series [2] deals with the molecule itself. The series can be described thus: homodimerisation; method not stated (FIG. 2).

One may read the Kd as the equilibrium constant for the complex coming apart.

B1: CV30 (antibody, V domains shown)
VH: EVQLVESGGGLIQPGGSLRLSCAASGVIVSSNYMSWVRQAPGKGLEWVSVIYSGGSTYYADSVKGRFTISRDNSKNTLYLQMNSLRAEDTAVYYCARDLDVSGGMDVWGQGTTVTVSS
VL: not shown
Turning to B1, the Kd in series [1] was at most 0.01 nM.

B2: homodimeric coiled-coil (HomoCC) (designed binder)
chain: DEEQRKVVEEDLKVLEHLRRVVERKEHLVRDAYEETFDDQQREVVREKLKVLEHLEKVIERDRHLSSRPGL
As to B2, in series [2], the Kd stood at 7.6 µM.
